# Measured values from patent publication USRE49280 (University of Texas, dated 2022).
# T1: TGF-β2 K25R I92V K94R (UniProt P61812 303-414, K25R; I92V; K94R)
# T1 construct: mature; Immobilised on the SPR sensor surface
# T1 sequence (looked up): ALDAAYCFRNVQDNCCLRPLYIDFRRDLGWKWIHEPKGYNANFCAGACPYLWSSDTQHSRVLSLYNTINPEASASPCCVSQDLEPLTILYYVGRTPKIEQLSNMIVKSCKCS
# B1: TGF-β type III receptor endoglin-like domain (receptor)
# chain: GPEPSTRCELSPINASHPVQALMESFTVLSGCASRGTTGLPREVHVLNLRSTDQGPGQRQREVTLHLNPIASVHTHHKPIVFLLNSPQPLVWHLKTERLAAGVPRLFLVSEGSVVQFPSGNFSLTAETEERNFPQENEHLLRWAQKEYGAVTSFTELKIARNIYIKVGEDQVFPPTCNIGKNFLSLNYLAEYLQPKAAEGCVLPSQPHEKEVHIIELITPSSNPYSAFQVDIIVDIRPAQEDPEVVKNLVLILKCKKSVNWVIKSFDVKGNLKVIAPNSIGFGKESERSMTMTKLVRDDIPSTQENLMKWALDNGYRPVTSYTMAPVANRFHLRLENNEEMRDEEVHTIPPELRILLDPD
# notes: also called TβRIIIE; BGE
# Molecular target: T1, TGF-β2 K25R I92V K94R
# Experiment: SPR, receptor injected over immobilised TGF-β2 K25R I92V K94R
binder,measurement,value
B1,maximal mass-normalized response relative to that for TβRII,~0.5 fold of TβRII
